Earlier results on 1 substance are cited in publication PMC6899468.

The data set deals with neuropilin-1 (Homo sapiens) (UniProt O14786).
UniProt O14786, sequence (O14786 22-856): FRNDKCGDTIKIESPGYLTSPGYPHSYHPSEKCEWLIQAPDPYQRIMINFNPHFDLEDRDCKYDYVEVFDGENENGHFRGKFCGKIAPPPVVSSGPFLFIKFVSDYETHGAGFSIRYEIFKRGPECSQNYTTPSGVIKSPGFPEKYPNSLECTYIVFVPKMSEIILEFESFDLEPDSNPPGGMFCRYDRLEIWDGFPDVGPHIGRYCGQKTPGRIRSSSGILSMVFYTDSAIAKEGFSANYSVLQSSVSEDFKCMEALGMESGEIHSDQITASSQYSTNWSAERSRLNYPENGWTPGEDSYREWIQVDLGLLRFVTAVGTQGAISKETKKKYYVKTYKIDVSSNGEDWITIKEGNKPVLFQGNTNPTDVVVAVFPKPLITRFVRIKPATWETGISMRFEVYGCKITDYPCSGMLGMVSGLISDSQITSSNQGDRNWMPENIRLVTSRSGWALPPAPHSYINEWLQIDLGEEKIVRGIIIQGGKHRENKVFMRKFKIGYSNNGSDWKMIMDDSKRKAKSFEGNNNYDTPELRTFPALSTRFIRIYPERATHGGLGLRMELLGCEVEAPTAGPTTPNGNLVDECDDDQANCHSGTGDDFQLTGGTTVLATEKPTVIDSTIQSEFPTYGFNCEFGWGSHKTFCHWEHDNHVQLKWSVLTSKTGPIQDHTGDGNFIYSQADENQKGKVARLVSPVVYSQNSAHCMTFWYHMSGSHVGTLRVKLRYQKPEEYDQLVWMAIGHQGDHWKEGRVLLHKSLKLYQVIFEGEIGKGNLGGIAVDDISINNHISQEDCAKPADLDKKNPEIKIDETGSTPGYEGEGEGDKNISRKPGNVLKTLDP

In the case of “chromogranin A fragment hCgA1-373 1-373 (from UniProt P10645)”, the Kd was 3.49 nM.
